# Measurements: PMC2744670 (2009)
# T1: CCR1 (Homo sapiens, UniProt P32246)
# T1 chain: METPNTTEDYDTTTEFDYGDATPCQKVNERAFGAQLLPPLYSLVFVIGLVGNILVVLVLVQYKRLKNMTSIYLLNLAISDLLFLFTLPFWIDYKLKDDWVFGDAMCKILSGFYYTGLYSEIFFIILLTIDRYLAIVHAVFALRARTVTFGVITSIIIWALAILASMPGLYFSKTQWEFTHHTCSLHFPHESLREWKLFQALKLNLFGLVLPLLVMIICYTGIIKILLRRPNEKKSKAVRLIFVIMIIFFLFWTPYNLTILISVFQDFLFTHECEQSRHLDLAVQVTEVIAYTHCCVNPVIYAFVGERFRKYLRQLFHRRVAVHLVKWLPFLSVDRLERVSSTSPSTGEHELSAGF
# B1: U83A (protein)
# chain: FICSSPDAELFSEKSRMSSSVLLGCLLCCMDWSAAVPGKTEPFRKLFDAIMIKKLKSCSAAYPSDLDEGSMCDMADASPTSLELGLSKLDKES
# Target: T1, CCR1
# Assay: competition binding with [125I]CCL3 on transfected COS-7 cells
binder,measurement,value
B1,IC50,0.4 nM
